Source: PMC9482650, “Quantitative fragmentomics allow affinity mapping of interactomes” (Nature Communications, 2022)

T1: LIN7B, Q9HAP6
T1 sequence (Q9HAP6 88-185, limits assumed, looked up): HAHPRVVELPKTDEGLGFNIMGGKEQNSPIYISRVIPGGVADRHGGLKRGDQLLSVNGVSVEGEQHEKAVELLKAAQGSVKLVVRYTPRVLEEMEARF

T2: DLG3_2, Q92796
T2 sequence (Q92796 221-321, limits assumed, looked up): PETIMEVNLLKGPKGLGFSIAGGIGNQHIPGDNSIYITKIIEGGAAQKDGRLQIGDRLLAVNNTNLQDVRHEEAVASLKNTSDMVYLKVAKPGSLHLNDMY

T3: DLG3_1, Q92796
T3 sequence (Q92796 125-227, limits assumed, looked up): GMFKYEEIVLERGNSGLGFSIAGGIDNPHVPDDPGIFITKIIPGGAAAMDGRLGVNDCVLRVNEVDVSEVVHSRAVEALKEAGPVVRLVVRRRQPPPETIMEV

T4: SYNJ2BP, P57105
T4 sequence (P57105 8-110, limits assumed, looked up): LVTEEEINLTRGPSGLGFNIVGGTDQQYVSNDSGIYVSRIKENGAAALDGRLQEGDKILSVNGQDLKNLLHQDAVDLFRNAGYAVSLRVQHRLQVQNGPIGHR

T5: MPDZ_10, O75970
T5 sequence (O75970 1624-1722, limits assumed, looked up): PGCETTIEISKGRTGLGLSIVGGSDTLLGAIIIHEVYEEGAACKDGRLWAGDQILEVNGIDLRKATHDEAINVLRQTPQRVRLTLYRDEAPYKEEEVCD

T6: HTRA3, P83110
T6 sequence (P83110 354-453, limits assumed, looked up): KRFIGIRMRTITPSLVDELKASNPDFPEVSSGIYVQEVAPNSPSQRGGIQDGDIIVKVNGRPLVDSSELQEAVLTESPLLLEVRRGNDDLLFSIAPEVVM

T7: DFNB31_1, Q9P202
T7 sequence (Q9P202 135-233, limits assumed, looked up): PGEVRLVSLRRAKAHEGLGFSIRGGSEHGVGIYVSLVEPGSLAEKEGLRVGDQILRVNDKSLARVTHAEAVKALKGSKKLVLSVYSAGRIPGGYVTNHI

T8: GRIP1_2, Q9Y3R0
T8 sequence (Q9Y3R0 145-248, limits assumed, looked up): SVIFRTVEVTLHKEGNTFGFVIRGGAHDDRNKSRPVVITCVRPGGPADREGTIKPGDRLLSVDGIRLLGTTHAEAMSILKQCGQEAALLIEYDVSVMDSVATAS

T9: PARD3B_1, Q8TEW8
T9 sequence (Q8TEW8 196-299, limits assumed, looked up): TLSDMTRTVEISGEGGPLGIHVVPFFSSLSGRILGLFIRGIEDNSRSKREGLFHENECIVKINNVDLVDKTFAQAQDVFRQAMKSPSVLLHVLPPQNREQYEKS

T10: GRIP1_4, Q9Y3R0
T10 sequence (Q9Y3R0 467-571, limits assumed, looked up): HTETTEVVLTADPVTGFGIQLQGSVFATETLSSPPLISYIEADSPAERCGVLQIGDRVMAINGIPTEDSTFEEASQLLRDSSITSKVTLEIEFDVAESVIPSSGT

T11: PTPN13_1, Q12923
T11 sequence (Q12923 1088-1188, limits assumed, looked up): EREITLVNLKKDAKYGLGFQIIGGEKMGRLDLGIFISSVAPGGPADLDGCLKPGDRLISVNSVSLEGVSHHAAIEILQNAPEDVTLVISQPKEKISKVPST

T12: RHPN1, Q8TCX5
T12 sequence (Q8TCX5 508-602, limits assumed, looked up): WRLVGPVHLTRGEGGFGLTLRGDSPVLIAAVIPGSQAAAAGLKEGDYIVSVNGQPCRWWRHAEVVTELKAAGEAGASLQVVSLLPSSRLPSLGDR


Each binder was assayed against TJP1_3, Q07157 (assay: holdup assay). Settings: plain residues with an end cap or a label only (N-terminal biotin on a linker: ado-ado).
Parameters: key: below the threshold = too weak to quantify, mostly under pKd 3.1 to 4

Sequence of TJP1_3, Q07157 (Q07157 416-512): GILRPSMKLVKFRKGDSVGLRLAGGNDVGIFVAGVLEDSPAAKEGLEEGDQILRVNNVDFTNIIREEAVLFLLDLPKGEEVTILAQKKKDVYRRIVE

Binder	pKd
YYKRPVQEWV [MMP24, Q9Y5R2]	4.34
VRNLPESEEL [MYOZ3, Q8TDC0]	below the threshold

These binders were tested against T1, LIN7B, Q9HAP6 (assay: holdup assay). Settings: plain residues with an end cap or a label only (N-terminal biotin on a linker: ado-ado).
Parameters: key: below the threshold = too weak to quantify, mostly under pKd 3.1 to 4

Binder	pKd
YYKRPVQEWV [MMP24, Q9Y5R2]	below the threshold
VRNLPESEEL [MYOZ3, Q8TDC0]	below the threshold

Each binder was assayed against T2, DLG3_2, Q92796 (assay: holdup assay). Settings: plain residues with an end cap or a label only (N-terminal biotin on a linker: ado-ado).
Parameters: key: below the threshold = too weak to quantify, mostly under pKd 3.1 to 4

Binder	pKd
YYKRPVQEWV [MMP24, Q9Y5R2]	4.23
VRNLPESEEL [MYOZ3, Q8TDC0]	below the threshold

These binders were tested against T3, DLG3_1, Q92796 (assay: holdup assay). Settings: plain residues with an end cap or a label only (N-terminal biotin on a linker: ado-ado).
Parameters: key: below the threshold = too weak to quantify, mostly under pKd 3.1 to 4

Binder	pKd
YYKRPVQEWV [MMP24, Q9Y5R2]	below the threshold
VRNLPESEEL [MYOZ3, Q8TDC0]	below the threshold

These binders were tested against TJP2_1, Q9UDY2 (assay: holdup assay). Settings: plain residues with an end cap or a label only (N-terminal biotin on a linker: ado-ado).
Parameters: key: below the threshold = too weak to quantify, mostly under pKd 3.1 to 4

Sequence of TJP2_1, Q9UDY2 (Q9UDY2 24-128): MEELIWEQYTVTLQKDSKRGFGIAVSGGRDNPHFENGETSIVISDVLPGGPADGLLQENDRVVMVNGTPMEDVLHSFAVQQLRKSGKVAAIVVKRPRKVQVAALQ

Binder	pKd
YYKRPVQEWV [MMP24, Q9Y5R2]	6.12
VRNLPESEEL [MYOZ3, Q8TDC0]	below the threshold

The binders below were run against LAP2, Q96RT1 (assay: holdup assay). Settings: plain residues with an end cap or a label only (N-terminal biotin on a linker: ado-ado).
Parameters: key: below the threshold = too weak to quantify, mostly under pKd 3.1 to 4

Sequence of LAP2, Q96RT1 (Q96RT1 other isoform, or with tags, fused parts or gaps): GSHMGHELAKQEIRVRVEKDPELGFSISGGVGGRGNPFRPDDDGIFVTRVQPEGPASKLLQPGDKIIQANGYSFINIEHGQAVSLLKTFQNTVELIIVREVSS

Binder	pKd
YYKRPVQEWV [MMP24, Q9Y5R2]	4.51
VRNLPESEEL [MYOZ3, Q8TDC0]	below the threshold

Each binder was assayed against T4, SYNJ2BP, P57105 (assay: holdup assay). Settings: plain residues with an end cap or a label only (N-terminal biotin on a linker: ado-ado).
Parameters: key: below the threshold = too weak to quantify, mostly under pKd 3.1 to 4

Binder	pKd
YYKRPVQEWV [MMP24, Q9Y5R2]	3.91
VRNLPESEEL [MYOZ3, Q8TDC0]	below the threshold

Each binder was assayed against IL16_1, Q14005 (assay: holdup assay). Settings: plain residues with an end cap or a label only (N-terminal biotin on a linker: ado-ado).
Parameters: key: below the threshold = too weak to quantify, mostly under pKd 3.1 to 4

Sequence of IL16_1, Q14005 (Q14005 210-306): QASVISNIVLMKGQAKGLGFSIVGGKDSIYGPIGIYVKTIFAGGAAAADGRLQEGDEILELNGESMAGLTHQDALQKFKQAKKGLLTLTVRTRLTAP

Binder	pKd
YYKRPVQEWV [MMP24, Q9Y5R2]	3.48
VRNLPESEEL [MYOZ3, Q8TDC0]	below the threshold

These binders were tested against T5, MPDZ_10, O75970 (assay: holdup assay). Settings: plain residues with an end cap or a label only (N-terminal biotin on a linker: ado-ado).
Parameters: key: below the threshold = too weak to quantify, mostly under pKd 3.1 to 4

Binder	pKd
YYKRPVQEWV [MMP24, Q9Y5R2]	below the threshold
VRNLPESEEL [MYOZ3, Q8TDC0]	below the threshold

The binders below were run against GORASP2, Q9H8Y8 (assay: holdup assay). Settings: plain residues with an end cap or a label only (N-terminal biotin on a linker: ado-ado).
Parameters: key: below the threshold = too weak to quantify, mostly under pKd 3.1 to 4

Binder	pKd
YYKRPVQEWV [MMP24, Q9Y5R2]	5.44
VRNLPESEEL [MYOZ3, Q8TDC0]	below the threshold

Each binder was assayed against T6, HTRA3, P83110 (assay: holdup assay). Settings: plain residues with an end cap or a label only (N-terminal biotin on a linker: ado-ado).
Parameters: key: below the threshold = too weak to quantify, mostly under pKd 3.1 to 4

Binder	pKd
YYKRPVQEWV [MMP24, Q9Y5R2]	5.7
VRNLPESEEL [MYOZ3, Q8TDC0]	below the threshold

What follows are binders tested against HTRA1, Q92743 (assay: holdup assay). Settings: plain residues with an end cap or a label only (N-terminal biotin on a linker: ado-ado).
Parameters: key: below the threshold = too weak to quantify, mostly under pKd 3.1 to 4

Sequence of HTRA1, Q92743 (Q92743 360-477): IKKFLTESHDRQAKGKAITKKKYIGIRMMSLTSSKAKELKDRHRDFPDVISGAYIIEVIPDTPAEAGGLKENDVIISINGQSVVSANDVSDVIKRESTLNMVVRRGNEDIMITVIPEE

Binder	pKd
YYKRPVQEWV [MMP24, Q9Y5R2]	4.5
VRNLPESEEL [MYOZ3, Q8TDC0]	3.84

The binders below were run against T7, DFNB31_1, Q9P202 (assay: holdup assay). Settings: plain residues with an end cap or a label only (N-terminal biotin on a linker: ado-ado).
Parameters: key: below the threshold = too weak to quantify, mostly under pKd 3.1 to 4

Binder	pKd
YYKRPVQEWV [MMP24, Q9Y5R2]	below the threshold
VRNLPESEEL [MYOZ3, Q8TDC0]	below the threshold

What follows are binders tested against Inadl_9, Q8NI35 (assay: holdup assay). Settings: plain residues with an end cap or a label only (N-terminal biotin on a linker: ado-ado).
Parameters: key: below the threshold = too weak to quantify, mostly under pKd 3.1 to 4

Sequence of Inadl_9, Q8NI35 (Q8NI35 1530-1615): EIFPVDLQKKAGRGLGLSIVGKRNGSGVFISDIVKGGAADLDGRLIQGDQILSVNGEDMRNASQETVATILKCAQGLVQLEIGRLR

Binder	pKd
YYKRPVQEWV [MMP24, Q9Y5R2]	4.17
VRNLPESEEL [MYOZ3, Q8TDC0]	below the threshold

What follows are binders tested against DLG4_1, P78352 (assay: holdup assay). Settings: plain residues with an end cap or a label only (N-terminal biotin on a linker: ado-ado).
Parameters: key: below the threshold = too weak to quantify, mostly under pKd 3.1 to 4

Sequence of DLG4_1, P78352 (P78352 62-152): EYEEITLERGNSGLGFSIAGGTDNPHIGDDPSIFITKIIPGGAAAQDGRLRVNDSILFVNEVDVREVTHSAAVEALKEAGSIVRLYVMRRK

Binder	pKd
YYKRPVQEWV [MMP24, Q9Y5R2]	below the threshold
VRNLPESEEL [MYOZ3, Q8TDC0]	below the threshold

These binders were tested against T8, GRIP1_2, Q9Y3R0 (assay: holdup assay). Settings: plain residues with an end cap or a label only (N-terminal biotin on a linker: ado-ado).
Parameters: key: below the threshold = too weak to quantify, mostly under pKd 3.1 to 4

Binder	pKd
YYKRPVQEWV [MMP24, Q9Y5R2]	below the threshold
VRNLPESEEL [MYOZ3, Q8TDC0]	below the threshold

The binders below were run against T9, PARD3B_1, Q8TEW8 (assay: holdup assay). Settings: plain residues with an end cap or a label only (N-terminal biotin on a linker: ado-ado).
Parameters: key: below the threshold = too weak to quantify, mostly under pKd 3.1 to 4

Binder	pKd
YYKRPVQEWV [MMP24, Q9Y5R2]	below the threshold
VRNLPESEEL [MYOZ3, Q8TDC0]	3.58

What follows are binders tested against T10, GRIP1_4, Q9Y3R0 (assay: holdup assay). Settings: plain residues with an end cap or a label only (N-terminal biotin on a linker: ado-ado).
Parameters: key: below the threshold = too weak to quantify, mostly under pKd 3.1 to 4

Binder	pKd
YYKRPVQEWV [MMP24, Q9Y5R2]	below the threshold
VRNLPESEEL [MYOZ3, Q8TDC0]	below the threshold

What follows are binders tested against Inadl_10, Q8NI35 (assay: holdup assay). Settings: plain residues with an end cap or a label only (N-terminal biotin on a linker: ado-ado).
Parameters: key: below the threshold = too weak to quantify, mostly under pKd 3.1 to 4

Sequence of Inadl_10, Q8NI35 (Q8NI35 1673-1763): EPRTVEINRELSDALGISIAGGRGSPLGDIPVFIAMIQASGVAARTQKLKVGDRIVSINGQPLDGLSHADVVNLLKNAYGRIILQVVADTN

Binder	pKd
YYKRPVQEWV [MMP24, Q9Y5R2]	below the threshold
VRNLPESEEL [MYOZ3, Q8TDC0]	below the threshold

What follows are binders tested against NHERF4_4, Q86UT5 (assay: holdup assay). Settings: plain residues with an end cap or a label only (N-terminal biotin on a linker: ado-ado).
Parameters: key: below the threshold = too weak to quantify, mostly under pKd 3.1 to 4

Sequence of NHERF4_4, Q86UT5 (Q86UT5 464-550): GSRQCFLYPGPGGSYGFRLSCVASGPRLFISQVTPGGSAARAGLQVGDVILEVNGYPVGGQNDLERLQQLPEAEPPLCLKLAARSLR

Binder	pKd
YYKRPVQEWV [MMP24, Q9Y5R2]	below the threshold
VRNLPESEEL [MYOZ3, Q8TDC0]	3.85

These binders were tested against DLG1_3, Q12959 (assay: holdup assay). Settings: plain residues with an end cap or a label only (N-terminal biotin on a linker: ado-ado).
Parameters: key: below the threshold = too weak to quantify, mostly under pKd 3.1 to 4

Sequence of DLG1_3, Q12959 (Q12959 457-571): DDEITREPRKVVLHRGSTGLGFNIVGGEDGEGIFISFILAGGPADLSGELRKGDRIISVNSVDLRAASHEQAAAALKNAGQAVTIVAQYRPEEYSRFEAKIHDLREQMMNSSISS

Binder	pKd
YYKRPVQEWV [MMP24, Q9Y5R2]	below the threshold
VRNLPESEEL [MYOZ3, Q8TDC0]	below the threshold

The binders below were run against NOS1, P29475 (assay: holdup assay). Settings: plain residues with an end cap or a label only (N-terminal biotin on a linker: ado-ado).
Parameters: key: below the threshold = too weak to quantify, mostly under pKd 3.1 to 4

Sequence of NOS1, P29475 (P29475 9-101): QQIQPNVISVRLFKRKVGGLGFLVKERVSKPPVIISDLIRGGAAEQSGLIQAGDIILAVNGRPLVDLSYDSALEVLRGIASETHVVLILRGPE

Binder	pKd
YYKRPVQEWV [MMP24, Q9Y5R2]	4.39
VRNLPESEEL [MYOZ3, Q8TDC0]	below the threshold

What follows are binders tested against Inadl_5, Q8NI35 (assay: holdup assay). Settings: plain residues with an end cap or a label only (N-terminal biotin on a linker: ado-ado).
Parameters: key: below the threshold = too weak to quantify, mostly under pKd 3.1 to 4

Sequence of Inadl_5, Q8NI35 (Q8NI35 673-780): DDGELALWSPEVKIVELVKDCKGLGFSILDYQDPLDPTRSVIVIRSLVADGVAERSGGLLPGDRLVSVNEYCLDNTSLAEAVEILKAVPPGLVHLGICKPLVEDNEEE

Binder	pKd
YYKRPVQEWV [MMP24, Q9Y5R2]	4.47
VRNLPESEEL [MYOZ3, Q8TDC0]	below the threshold

These binders were tested against T11, PTPN13_1, Q12923 (assay: holdup assay). Settings: plain residues with an end cap or a label only (N-terminal biotin on a linker: ado-ado).
Parameters: key: below the threshold = too weak to quantify, mostly under pKd 3.1 to 4

Binder	pKd
YYKRPVQEWV [MMP24, Q9Y5R2]	below the threshold
VRNLPESEEL [MYOZ3, Q8TDC0]	below the threshold

These binders were tested against T12, RHPN1, Q8TCX5 (assay: holdup assay). Settings: plain residues with an end cap or a label only (N-terminal biotin on a linker: ado-ado).
Parameters: key: below the threshold = too weak to quantify, mostly under pKd 3.1 to 4

Binder	pKd
YYKRPVQEWV [MMP24, Q9Y5R2]	below the threshold
VRNLPESEEL [MYOZ3, Q8TDC0]	below the threshold
